Test in all cases: SPR
One experiment has as its target T1, TIE1 ECD-Fc (human, UniProt P35590 22-759, biotin on the AviTag (as SPR ligand)).
T1 sequence: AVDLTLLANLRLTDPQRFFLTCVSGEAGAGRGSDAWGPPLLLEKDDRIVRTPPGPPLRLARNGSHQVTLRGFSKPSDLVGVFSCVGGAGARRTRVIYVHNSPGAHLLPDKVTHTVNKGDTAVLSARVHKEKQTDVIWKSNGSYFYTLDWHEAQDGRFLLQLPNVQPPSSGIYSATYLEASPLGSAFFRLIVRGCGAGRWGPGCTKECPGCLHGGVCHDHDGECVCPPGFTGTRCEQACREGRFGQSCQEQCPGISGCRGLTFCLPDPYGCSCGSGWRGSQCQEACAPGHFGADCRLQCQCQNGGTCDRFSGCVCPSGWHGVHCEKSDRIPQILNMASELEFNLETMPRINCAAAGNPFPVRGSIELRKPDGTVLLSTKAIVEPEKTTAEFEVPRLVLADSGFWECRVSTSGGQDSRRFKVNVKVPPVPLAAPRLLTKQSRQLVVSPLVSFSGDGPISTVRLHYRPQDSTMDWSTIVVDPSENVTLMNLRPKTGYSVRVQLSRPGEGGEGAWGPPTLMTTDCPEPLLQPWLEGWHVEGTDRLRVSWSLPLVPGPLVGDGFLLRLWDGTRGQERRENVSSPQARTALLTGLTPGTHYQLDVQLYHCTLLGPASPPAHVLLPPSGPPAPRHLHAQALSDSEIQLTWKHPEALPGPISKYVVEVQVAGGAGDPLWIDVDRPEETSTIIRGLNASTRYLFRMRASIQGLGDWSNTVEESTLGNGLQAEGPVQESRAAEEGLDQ

In another experiment the target is TIE2 ECD-Fc (human, UniProt Q02763 23-748, biotin on the AviTag (as SPR ligand)).
TIE2 ECD-Fc, sequence (Q02763 23-748): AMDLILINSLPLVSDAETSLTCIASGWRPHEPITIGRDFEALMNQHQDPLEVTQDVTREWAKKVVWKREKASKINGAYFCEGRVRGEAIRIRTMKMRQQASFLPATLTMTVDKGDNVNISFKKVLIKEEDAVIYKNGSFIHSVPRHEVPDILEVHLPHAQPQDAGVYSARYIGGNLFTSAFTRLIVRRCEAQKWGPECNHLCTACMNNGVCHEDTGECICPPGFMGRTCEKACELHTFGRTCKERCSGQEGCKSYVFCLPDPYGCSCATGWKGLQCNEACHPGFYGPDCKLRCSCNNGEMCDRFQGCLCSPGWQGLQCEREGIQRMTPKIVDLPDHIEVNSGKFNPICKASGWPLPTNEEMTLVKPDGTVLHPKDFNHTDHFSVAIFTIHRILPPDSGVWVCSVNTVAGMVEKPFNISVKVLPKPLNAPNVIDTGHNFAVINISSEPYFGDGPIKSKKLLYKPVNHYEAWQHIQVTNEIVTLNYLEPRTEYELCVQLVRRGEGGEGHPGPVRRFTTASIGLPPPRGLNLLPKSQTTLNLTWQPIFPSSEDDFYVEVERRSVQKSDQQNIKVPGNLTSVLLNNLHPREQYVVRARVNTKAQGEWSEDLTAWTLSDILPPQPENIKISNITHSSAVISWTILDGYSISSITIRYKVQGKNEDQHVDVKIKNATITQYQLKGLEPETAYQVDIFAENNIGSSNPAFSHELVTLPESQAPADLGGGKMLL
The target in another experiment is T2, IL-6Rα ECD-Fc (human, UniProt P08887 20-365, biotin on the AviTag (as SPR ligand)).
T2 sequence: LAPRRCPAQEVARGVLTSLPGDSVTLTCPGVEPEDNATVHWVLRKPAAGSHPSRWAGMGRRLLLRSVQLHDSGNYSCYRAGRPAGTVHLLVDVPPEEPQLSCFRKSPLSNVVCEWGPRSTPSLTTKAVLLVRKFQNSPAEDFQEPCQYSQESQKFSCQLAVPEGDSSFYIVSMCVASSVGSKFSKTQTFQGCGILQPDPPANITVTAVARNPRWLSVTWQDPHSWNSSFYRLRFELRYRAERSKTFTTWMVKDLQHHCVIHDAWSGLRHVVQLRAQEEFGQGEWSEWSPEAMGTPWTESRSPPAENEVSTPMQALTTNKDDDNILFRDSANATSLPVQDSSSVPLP

The target of another experiment is T3, human ISLR2 ECD-Fc (human, UniProt Q6UXK2 19-589, biotin on the AviTag (as SPR ligand)).
T3 sequence: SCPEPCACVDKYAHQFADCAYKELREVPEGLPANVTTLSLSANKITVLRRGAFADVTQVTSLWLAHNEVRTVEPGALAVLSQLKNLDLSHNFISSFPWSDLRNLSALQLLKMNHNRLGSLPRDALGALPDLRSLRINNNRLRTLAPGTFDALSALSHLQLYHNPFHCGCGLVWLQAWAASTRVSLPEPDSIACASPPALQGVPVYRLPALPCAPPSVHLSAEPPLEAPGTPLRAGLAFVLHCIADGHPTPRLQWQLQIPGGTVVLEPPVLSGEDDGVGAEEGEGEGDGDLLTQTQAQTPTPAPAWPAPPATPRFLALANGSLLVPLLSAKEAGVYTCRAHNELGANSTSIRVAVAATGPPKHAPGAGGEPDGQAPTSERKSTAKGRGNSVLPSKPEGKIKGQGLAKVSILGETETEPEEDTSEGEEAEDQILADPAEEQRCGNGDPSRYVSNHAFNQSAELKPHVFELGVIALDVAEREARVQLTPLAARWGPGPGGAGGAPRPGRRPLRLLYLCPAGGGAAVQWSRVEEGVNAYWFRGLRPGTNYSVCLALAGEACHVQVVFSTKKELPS

For another experiment, the target named is T4, PRTG ECD-Fc (human, UniProt Q2VWP7 36-949).
T4 sequence: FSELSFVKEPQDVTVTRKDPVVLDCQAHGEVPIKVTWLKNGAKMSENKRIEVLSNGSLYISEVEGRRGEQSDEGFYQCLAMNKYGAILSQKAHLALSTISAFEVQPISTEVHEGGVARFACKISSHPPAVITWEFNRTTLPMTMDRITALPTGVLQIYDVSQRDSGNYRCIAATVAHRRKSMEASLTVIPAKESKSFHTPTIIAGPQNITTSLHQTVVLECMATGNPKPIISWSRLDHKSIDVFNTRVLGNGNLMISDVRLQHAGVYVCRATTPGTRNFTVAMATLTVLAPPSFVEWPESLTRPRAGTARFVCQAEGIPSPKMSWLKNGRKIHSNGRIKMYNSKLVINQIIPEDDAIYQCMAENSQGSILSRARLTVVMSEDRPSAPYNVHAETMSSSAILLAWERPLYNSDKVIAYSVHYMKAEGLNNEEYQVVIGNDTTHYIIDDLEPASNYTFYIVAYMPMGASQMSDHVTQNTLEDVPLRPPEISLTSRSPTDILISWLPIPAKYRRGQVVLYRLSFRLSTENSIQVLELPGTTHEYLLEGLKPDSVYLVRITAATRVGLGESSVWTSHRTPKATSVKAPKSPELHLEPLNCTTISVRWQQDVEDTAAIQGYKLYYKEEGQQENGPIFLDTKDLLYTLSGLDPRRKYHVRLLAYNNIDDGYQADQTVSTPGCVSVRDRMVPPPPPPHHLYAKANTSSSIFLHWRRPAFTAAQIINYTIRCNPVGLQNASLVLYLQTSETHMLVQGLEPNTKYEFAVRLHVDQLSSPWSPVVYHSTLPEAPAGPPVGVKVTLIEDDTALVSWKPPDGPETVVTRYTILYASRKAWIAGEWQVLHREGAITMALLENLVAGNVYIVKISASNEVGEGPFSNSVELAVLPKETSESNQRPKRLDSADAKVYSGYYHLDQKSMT

B1: TrkA ECD-Fc (Fc fusion)
chain: AAPCPDACCPHGSSGLRCTRDGALDSLHHLPGAENLTELYIENQQHLQHLELRDLRGLGELRNLTIVKSGLRFVAPDAFHFTPRLSRLNLSFNALESLSWKTVQGLSLQELVLSGNPLHCSCALRWLQRWEEEGLGGVPEQKLQCHGQGPLAHMPNASCGVPTLKVQVPNASVDVGDDVLLRCQVEGRGLEQAGWILTELEQSATVMKSGGLPSLGLTLANVTSDLNRKNVTCWAENDVGRAEVSVQVNVSFPASVQLHTAVEMHHWCIPFSVDGQPAPSLRWLFNGSVLNETSFIFTEFLEPAANETVRHGCLRLNQPTHVNNGNYTLLAANPFGQASASIMAAFMDNPFEFNPEDPIPVSFSPVDTNSTSGDPVEKKDETPFGVSVAVG
modifications: biotin on the AviTag (in streptavidin-Alexa 647 tetramers)
In the case of B1, the binding result in the experiment with TIE1 ECD-Fc was “binds”.

B2: Recombinant Human Angiopoietin-1 Protein (ligand)
chain: HIGCSNQRRSPENSGRRYNRIQHGQCAYTFILPEHDGNCRESTTDQYNTNALQRDAPHVEPDFSSQKLQHLEHVMENYTQWLQKLENYIVENMKSEMAQIQQNAVQNHTATMLEIGTSLLSQTAEQTRKLTDVETQVLNQTSRLEIQLLENSLSTYKLEKQLLQQTNEILKIHEKNSLLEHKILEMEGKHKEELDTLKEEKENLQGLVTRQTYIIQELEKQLNRATTNNSVLQKQQLELMDTVHNLVNLCTKEGVLLKGGKREEEKPFRDCADVYQAGFNKSGIYTIYINNMPEPKKVFCNMDVNGGGWTVIQHREDGSLDFQRGWKEYKMGFGNPSGEYWLGNEFIFAITSQRQYMLRIELMDWEGNRAYSQYDRFHIGNEKQNYRLYLKGHTGTAGKQSSLILHGADFSTKDADNDNCMCKCALMLTGGWWFDACGPSNLNGMFYTAGQNHGKLNGIKWHYFKGPSYSLRSTTMMIRPLDF
With B2, the binding result in the experiment with TIE2 ECD-Fc is reported as “binds”.

B3: IGFBP7-Fc (Fc fusion)
chain: SSSDTCGPCEPASCPPLPPLGCLLGETRDACGCCPMCARGEGEPCGGGGAGRGYCAPGMECVKSRKRRKGKAGAAAGGPGVSGVCVCKSRYPVCGSDGTTYPSGCQLRAASQRAESRGEKAITQVSKGTCEQGPSIVTPPKDIWNVTGAQVYLSCEVIGIPTPVLIWNKVKRGHYGVQRTELLPGDRDNLAIQTRGGPEKHEVTGWVLVSPLSKEDAGEYECHASNSQGQASASAKITVVDALHEIPVKKGEGAEL
modifications: biotin on the AviTag (as SPR ligand)
On to B3, for which the binding result with IL-6Rα ECD-Fc, with human ISLR2 ECD-Fc and with PRTG ECD-Fc was “binds” in each case.

B4: IGFBPL1-Fc (Fc fusion)
chain: LGIRDVGGRRPKCGPCRPEGCPAPAPCPAPGISALDECGCCARCLGAEGASCGGRAGGRCGPGLVCASQAAGAAPEGTGLCVCAQRGTVCGSDGRSYPSVCALRLRARHTPRAHPGHLHKARDGPCEFAPVVVVPPRSVHNVTGAQVGLSCEVRAVPTPVITWRKVTKSPEGTQALEELPGDHVNIAVQVRGGPSDHEATAWILINPLRKEDEGVYQCHAANMVGEAESHSTVTVLDLSKYRSFHFPAPDDRM
modifications: biotin on the AviTag (as SPR ligand)
On to B4, for which the binding result with IL-6Rα ECD-Fc, in the experiment with human ISLR2 ECD-Fc and with PRTG ECD-Fc was “binds” throughout.

The values are drawn from publication PMC7440162 (Cell, 2020).
